Source: publication PMC8262983

Molecular target: recombinant 6×His-HSP70 (P. falciparum)

B1: recombinant 6×His-HSP40 (natural protein)
chain: MFFSSGFPFDSMGGQQARRKREVNNNKFYEVLNLKKNCTTDEVKKAYRKLAIIHHPDKGGDPEKFKEISRAYEVLSDEEKRKLYDEYGEEGLENGEQPADATDLFDFILNAGKGKKKRGEDIVSEVKVTLEQLYNGATKKLAISKDIICTNCEGHGGPKDAKVDCKQCNGRGTKTYMRYHSSVLHQTEVTCNTCRGKGKIFNEKDKCANCKGMCVLKTRKIIEVYIPKGAPNKHKIVFNGEADEKPNVITGNLVVILNEKQHPVFRREGIDLFMNYKISLYESLTGFVAEVTHLDERKILVNCTNSGFIRHGDIREVLDEGMPTYKDPFKKGNLYITFEVEYPMDLIITNENKEVLKILKKQNEVEKKYDLENSELEVVSCSPVDKEYIKVRVTKQQQQQQQEAYDDEDHQPEMEGGRVACAQQ
  ATPase activity of HSP70 (EnzChek phosphate assay; 45 μg HSP70 with 8.9 μg HSP40 against HSP70 alone): 3 fold
